T1: Recombinant human FAP (fibroblast activation protein) (human, UniProt Q12884 26-760)
T1 sequence (looked up): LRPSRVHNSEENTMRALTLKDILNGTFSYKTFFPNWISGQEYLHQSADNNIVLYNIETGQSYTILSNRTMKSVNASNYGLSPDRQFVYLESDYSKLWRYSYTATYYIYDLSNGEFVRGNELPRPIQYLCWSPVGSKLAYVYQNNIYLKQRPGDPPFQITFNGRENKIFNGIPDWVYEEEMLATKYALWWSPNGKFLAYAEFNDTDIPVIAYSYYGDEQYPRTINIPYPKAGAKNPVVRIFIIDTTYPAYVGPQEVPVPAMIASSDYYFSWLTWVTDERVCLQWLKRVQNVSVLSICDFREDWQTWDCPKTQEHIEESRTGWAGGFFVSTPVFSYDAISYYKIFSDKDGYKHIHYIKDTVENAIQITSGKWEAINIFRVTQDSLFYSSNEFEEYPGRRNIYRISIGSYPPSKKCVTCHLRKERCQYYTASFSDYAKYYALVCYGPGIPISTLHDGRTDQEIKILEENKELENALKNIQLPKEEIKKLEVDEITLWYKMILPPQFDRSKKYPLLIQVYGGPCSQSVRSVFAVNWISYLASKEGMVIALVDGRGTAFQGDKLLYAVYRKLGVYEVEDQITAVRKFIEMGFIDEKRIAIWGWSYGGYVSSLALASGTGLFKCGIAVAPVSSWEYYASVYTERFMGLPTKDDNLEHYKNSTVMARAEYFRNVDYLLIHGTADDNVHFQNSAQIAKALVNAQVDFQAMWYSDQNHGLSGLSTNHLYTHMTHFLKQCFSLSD

T2: Human FAP expressed on the cell surface (WI38, CHO-FAP1.9, U87MG cells) (human, UniProt Q12884 1-760)
T2 construct: whole, on cells; Endogenous on WI38 and U87MG cells; from a human FAP cDNA (OriGene) in CHO-FAP1.9 cells; also called hFAP; FAP+ cells
T2 sequence (looked up): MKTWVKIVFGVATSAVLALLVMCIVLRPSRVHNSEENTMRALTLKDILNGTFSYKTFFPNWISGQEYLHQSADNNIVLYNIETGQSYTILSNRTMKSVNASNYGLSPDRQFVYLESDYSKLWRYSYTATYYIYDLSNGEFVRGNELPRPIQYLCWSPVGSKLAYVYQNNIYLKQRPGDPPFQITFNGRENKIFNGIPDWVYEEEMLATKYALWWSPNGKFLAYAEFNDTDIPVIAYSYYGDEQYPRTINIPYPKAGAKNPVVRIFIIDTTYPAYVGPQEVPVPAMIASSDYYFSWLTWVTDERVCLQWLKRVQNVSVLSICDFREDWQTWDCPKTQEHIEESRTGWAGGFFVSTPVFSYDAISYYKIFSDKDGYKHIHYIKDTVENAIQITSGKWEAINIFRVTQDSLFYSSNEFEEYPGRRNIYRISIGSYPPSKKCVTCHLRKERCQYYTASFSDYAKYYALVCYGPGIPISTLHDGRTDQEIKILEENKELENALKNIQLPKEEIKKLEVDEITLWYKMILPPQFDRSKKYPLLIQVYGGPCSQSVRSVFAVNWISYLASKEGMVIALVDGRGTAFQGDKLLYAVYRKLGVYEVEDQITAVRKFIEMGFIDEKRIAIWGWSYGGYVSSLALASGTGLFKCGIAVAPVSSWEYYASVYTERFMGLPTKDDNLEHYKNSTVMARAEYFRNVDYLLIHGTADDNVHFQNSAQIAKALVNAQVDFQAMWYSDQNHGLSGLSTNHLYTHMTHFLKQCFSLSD


Columns and labels:
[1] = target: T1, Recombinant human FAP (fibroblast …); experiment: cell-based or functional assay
[2] = target: T2, Human FAP expressed on the cell surface …; experiment: FACS on FAP-expressing WI38 cells, Penta-His AF647 detection
Method: Using multi-well plates, 20,000 WI38 cells were added per well in 50 μl of PBS. 50 μl of appropriate dilutions (2× dilution steps) of ankyrin repeat protein was then added to the cells and incubated for 30 minutes on ice. After the ankyrin repeat protein-binding reaction, cells were washed twice with PBS. Direct immunofluorescent detection of the His-tagged ankyrin repeat proteins using Penta-His AF647 conjugate (QIAgen) and determination of live cells using LIVE/DEAD™ Fixable Green Dead Cell Stain Kit (ThermoFisher) were then performed together in one step. The Penta-His AF647 conjugate and the LIVE/DEAD™ Fixable Green dye were applied to the cells together in 1/200 (Penta-His) and 1/1000 (LID Fixable) final dilutions and incubated for 20-30 minutes on ice. After washing the cells with PBS, cells were re-suspended in 1× CellFix™ buffer (BD Biosciences) (10× stock was diluted 1/10 in water). The samples were incubated in CellFix™ buffer for 15-20 minutes at RT, then spun down at 400 g for 5 min. Supernatant was discarded and cells were re-suspended in 200 μl PBS and stored at 4° C. until acquisition and FACS analysis. Acquisition and FACS analysis, including the determination of median fluorescence intensity (MFI), were done within 5 days after staining using an AttuneNxT instrument. Binding curves were fitted by non-linear regression curve fitting using GraphPad Prism software (v 7.0.4).
EC₅₀ values were determined using standard procedures known to the person skilled in the art. […] Table 2 provides the EC₅₀ values of selected ankyrin repeat proteins as examples.

[3] = target: T1, Recombinant human FAP (fibroblast …); experiment: SPR (ProteOn), human FAP immobilized on GLC chip
Method: Briefly, human FAP was diluted in 10 mM Na-acetate pH 5.3 buffer and covalently immobilized on a GLC chip (BioRad) to a level of around 2000 resonance units (RU). The interaction of ankyrin repeat protein and hFAP was then measured by injecting 200 μl running buffer (PBS, pH 7.4 containing 0.005% Tween 20®) containing serial dilutions of ankyrin repeat proteins covering a concentration range between 30 nM and 0.5 nM (on-rate measurement), followed by a running buffer flow for at least 25 minutes at a constant flow rate of 100 μl/min (off-rate measurement). The regeneration was performed using 15 μl of 10 mM Glycine pH 2 followed by 15 μl of 124 mM H₃PO₄. The signals (i.e. resonance unit (RU) values) of the interspots and a reference injection (i.e. injection of running buffer only) were subtracted from the RU traces obtained after injection of ankyrin repeat protein (double-referencing). Based on the SPR traces obtained from the on-rate and off-rate measurements, the on- and off-rate of the corresponding ankyrin repeat protein—FAP interaction was determined.
Dissociation constants (KD) were calculated from the estimated on- and off-rates using standard procedures known to the person skilled in the art. […] Table 1 provides the KD values of some selected ankyrin repeat proteins as examples.

FAP activity (%) [1] [%] | EC50 [2] [pM] | Kd [3] [pM] | Binder
114 | 789 | 194 | DARPin® protein #12 (designed binder) MRGSHHHHHHGSYPYDVPDYAGSDLGKKLLEAARAGQDDEVRILLAAGADVSAKDQWGWTPLHLAARVGHLEIVEVLLKAGADVNAKDVRGVTPLHLAAFHGHLEIVEVLLKAGADVNAKDYAGHTPLHLAAWQGHLEIIEDLLKAGADVNAQDKSGKTPADLAADAGHEDIAEVLQKLN
96 | – | 63 | DARPin® protein #17 (designed binder) MRGSHHHHHHGSYPYDVPDYAGSDLGKKLLEAARAGQDDEVRILMANGADVNATDLMGRTPLHLAASRGHLEIVEVLLKNGADVNADDKYGITSLHLAAFLGHLEIVEVLLKYGADVNAIDFDGRTPLHPAAYRGHLEIVEVLLKHGADVNAQDKFGQTAFDISIDNGNEDLAEILQKLN
115 | 3170 | 3600 | DARPin® protein #1 (designed binder) MRGSHHHHHHGSYPYDVPDYAGSDLGKKLLEAARAGQDDEVRILLAAGADVNAKDQYGITPLHLAAFRGHLEIVEVLLKHGAGVNADDMDGRTPLHPAAYKGHLEIVEVLLKNGADVNAQDKFGKTAFDISIDNGNEDLAEILQKLN
120 | 512 | 10400 | DARPin® protein #10 (designed binder) MRGSHHHHHHGSYPYDVPDYAGSDLGKKLLEATRAGQDDEVRILLAAGADVNAKDEYGITPLHLAAFRGHLEIVEVLLKHGADVNAIDYNGRTPLHPAAYSGHLEIVEVLLKYGADVNAQDKFGKTAFDISIDNGNEDLAEILQKLN
103 | 654 | – | DARPin® protein #5 (designed binder) MRGSHHHHHHGSYPYDVPDYAGSDLGYTLLEAARRGQDDEVRELLKAGADVNAKDTIGYTPLHYAAQVGHLEIVEVLLKAGADVNAKDTQGITPLHVAAATGHLEIVEVLLKAGADVNAQDSKGRTPADLAAEQGHEDIAEVLQKLN
110 | – | – | DARPin® protein #25 (designed binder) MRGSHHHHHHGSYPYDVPDYAGSDLGYKLLEAARRGQDDEVRELLKAGADVNAKDVIGYTPLHYAASEGHLEIVEVLLKAGADVNAKDTKGITPLHVAASTGHLEIVEVLLKAGADVNAQDLRGYTPADLAARQGHEDIGEVLQKLN
146 | – | 303 | DARPin® protein #6 (designed binder) MRGSHHHHHHGSYPYDVPDYAGSDLGKKLLEAARAGQDDEVRELLKAGADVNAKDEWGKTPLHYAAALGHLEIVEVLLKAGADVNAKDQYGATPLHIAAFAGHLEIVEVLLKAGADVNAKDAWGFTPLHLAATRGHLEIVEVLLKAGADVNAQDKSGKTPADLAADAGHEDIVEVLQKLN
123 | – | 97 | DARPin® protein #31 (designed binder) MRGSHHHHHHGSYPYDVPDYAGSDLGKKLLEAARAGQDDEVRELLKAGADVNAKDEFGKTPLHLAAALGHLEIVEVLLKAGADVNAKGLWGETPLHVAAFAGHLEIVEVLLKAGADVNAKDTYGYTPLHLAASRGHLEIVEVLLKAGADVNAQDKSGKTPADLAADAGHEDIAEVLQKLN
97 | – | 120 | DARPin® protein #8 (designed binder) MRGSHHHHHHGSYPYDVPDYAGSDLGKKLLEAARAGQDDEVRELLKAGADVNAKDQHGKTPLHYAAALGHLEIVEVLLKAGADVNAKDRWGATPLHIAAFAGHLEIVEVLLKAGADVNAKDEVGWTPLHLAARFGHLEIVEVLLKAGADVNAQDKSGKTPADLAADAGHEDIVEVLQKLN
104 | – | 115 | DARPin® protein #20 (designed binder) MRGSHHHHHHGSYPYDVPDYAGSDLGEKLLIAALFGQDEEVRILLAAGADVNAKDEWGHTPLHKAALSGHLEIVEVLLKAGADVNAKDQKGSTPLHWAATRGHLEIVEVLLKAGADVNAQDHIGRTPADLAANFGHEDIAEVLQKLN
97 | – | 23 | DARPin® protein #16 (designed binder) MRGSHHHHHHGSYPYDVPDYAGSDLGKKLLEAARAGQDDEVRILMANGTDVNATDMTGRTPLHLAALYGHLEIVEVLLKYGADVNALDKFGITPLHLAAFMGHLEIVEVLLKYGADVNAADLDGRTPLHPTAYRGHLEIVEVLLKNGADVNAQDKFGKTAFDISIDNGNEDLAEILQKLN
88 | 307 | 10 | DARPin® protein #13 (designed binder) MRGSHHHHHHGSYPYDVPDYAGSDLGKKLLEAARAGQDDEVRILLAAGADVNAKDDWGWTPLHLAARHGHLEIVEVLLKAGTDVNAKDKRGVTPLHLAAYIGHLEIAEVLLKAGADVNAKDFQGWTPLHLAAVRGHLEIVEVLLKAGADVNAQDKSGKTPADLAADAGHEDIAEVLQKLN
117 | 523 | 57 | DARPin® protein #11 (designed binder) MRGSHHHHHHGSYPYDVPDYAGSDLGKKLLEAARAGQDDEVRILLAAGADVNAKDTWGWTPLHLAAKSGHLEIVEVLLKAGADVNAKDYHGVTPLHLATFWGHLEIVEVLLKAGADVNAKDWYGETPLHLAAIRGHLEIVEVLLKAGADVNAQDKSGKTPADLAADAGHEDIAEVLQKLN

Reference: patent publication US20220242973A1 (Molecular Partners, published 2022)
